Data on 1 molecule can be found in patent US20260092097A1 (published 2026).

The assay concerns the target T1, p53 peptide on HLA-A*02:01 (human).
T1 peptide: STPPPGTRV
Kind of assay: binding, other.

B1: c149scTCR (TCR, V domains shown)
Valpha: QKVTQTQTSISVMEKTTVTMDCVYETRDSSYFLFWYKQTASGEIVFLIRQDSYKKENATEGHYSLNFQKPKSSIGLIITATQIEDSAVYFCAMRDTNAYKVIFGKGTHLHVLP
Vbeta: EAAVTQSPRSKVAVTGGKVTLSCHQTNNHDYMYWYRQDTGHGLRLIHYSYVADSTEKGDIPDGYKASRPSQENFSLILELASLSQTAVYFCASSPHSYEQYFGPGTRLTVL
B1: the binding result is reported as “recognises”.
